Consider 1 molecule from patent US10760112B2, “Enzymatic activity assays for glucocerebrosidase” (Shire Human Genetic Therapies, Inc., priority 2014, dated 2020).

As usually defined, the Km is the substrate concentration at which the rate is half of its maximum. As a reminder, the kcat is the number of substrate molecules converted per active site and unit of time at saturation.

Data set [1] is described as follows: Enzyme kinetics assay with C18:1 glucosylceramide substrate, glucose detected by HPAEC-PAD. It is filed as biochemical. On the procedure:
Sonication was used to achieve a consistent substrate preparation. A sonicator was pre-set to 60% AMPL and 5 minutes. A 4 oz. amber bottle of substrate dilution buffer (4 mM taurocholic acid, 0.2% v/v oleic acid in citrate/phosphate buffer pH 5.0) was placed in the noise isolation chamber and the sonicator probe was immersed into the solution. The substrate dilution buffer was sonicated at 60% AMPL for 5 minutes. Following sonication, the noise isolation chamber was opened. A second cycle of sonication at 60% AMPL for 5 minutes was initiated while the amber bottle was gently swirled. After 5 minutes, the substrate dilution buffer was cloudy. Approximately 15-20 mg of C18:1 glucosylceramide was weighed in a clean 2 oz. amber bottle. Sonicated substrate dilution buffer was added to bring the concentration of C18:1 glucosylceramide to 0.64 mg/mL (approximately 880 μM). Next, the same sonication steps were repeated for the 2 oz. amber bottle of 880 μM C18:1 glucosylceramide, with the additional consideration that, prior to the step of gently swirling the bottle while sonicating, it was ensured that all substrate particles were in the biphasic mixture. Sonication and swirling were continued until there were no visible particles in the mixture.
After the sonication procedure, two stocks were prepared for use in the assay. A first reagent reservoir filled with sonicated substrate dilution buffer. A second reagent reservoir was filled with 6 mL sonicated substrate dilution buffer and 2 mL of the 880 μM C18:1 glucosylceramide (final substrate concentration of 220 μM C18:1 glucosylceramide).
A dilution series of substrate was prepared in a 96-well plate having columns 1-12, rows A-H, and a well volume of 0.5 mL. Each well of rows A-G was filled with 170 μL substrate dilution buffer. In addition, 200 μL substrate solution of different concentrations were transferred to the appropriate wells of rows A to G according to Table 2. Substrate dilution buffer and substrate solution were mixed by pipetting.
Frozen experimental and assay control samples were thawed in a 37° C. water bath for <5 min. In the present examples, the sample is a sample of enzyme. After thawing, each tube was placed on ice. Dilutions of the samples were then prepared at room temperature. To prepare the sample dilutions, sample dilution buffer (50 mM citrate buffer pH 6.0, 0.75 mg/ml BSA) was placed on ice in centrifuge tubes, each tube containing 990 μL sonicated sample dilution buffer. Tubes of sample dilution buffer were briefly vortexed (1-3 seconds) and pulse centrifuged to collect the liquid to the bottom of the tube. A 10 μL aliquot of each sample was transferred into a dedicated tube of sample dilution buffer to prepare a 1:100 dilution. Samples were diluted in triplicate. Samples were briefly vortexed to ensure proper mixing. Next, a 10 μL aliquot of each of 1:100 diluted sample was transferred to a dedicated second tube having been preloaded with 990 μL sample dilution buffer, resulting in a 1:10,000 dilution. Samples were briefly vortexed to ensure proper mixing. Next, the 1:10,000 dilution was used to prepare a 1 mL dilution having a final concentration of 0.02 ng/μL. In particular, the volume of the 1:10,000 dilution needed to dilute the enzyme to 0.02 ng/μL in 1 mL was determined and transferred from the second tube into the a third dedicated tube preloaded with an amount of sample dilution buffer calculated to result in a total volume of 1 mL at 0.02 ng/μL. Accordingly, when 10 μL of 0.02 ng/μL enzyme is mixed with 100 μL of substrate solution, the final concentration of enzyme is 0.0290 nM, assuming a monomer with a relative molecular mass of 62.8 kDa. Samples were briefly vortexed to ensure proper mixing. Final dilution tubes were placed on ice.
Briefly, velaglucerase alfa was incubated with C18:1 glucosylceramide at eight concentrations of substrate (2.70-200 μM) and in 110 μL reactions for 20 min at 37° C. with appropriate standards and/or controls. […]

Data set [2] in a line: Velaglucerase activity at varying levels of sodium taurocholate. The class given is biochemical. Conditions: range tested 2 mM to 25 mM sodium taurocholate. On the procedure: Assays of velaglucerase activity were carried out in the presence of varying levels of sodium taurocholate or oleic acid. Sodium taurocholate is an anionic detergent that has been, in some cases, used to facilitate lipid-based substrate solubility in aqueous environments. The effect of sodium taurocholate was examined over a concentration range of 2 mM to 25 mM (FIG. 6).

Where [3] appears, read: Photo Stress (forced degradation, oxidation by light exposure).

B1: velaglucerase: recombinant form of glucocerebrosidase approved as long-term enzyme replacement therapy for Gaucher disease (SEQ ID NO: 1) (protein)
chain: ARPCIPKSFGYSSVVCVCNATYCDSFDPPTFPALGTFSRYESTRSGRRMELSMGPIQANHTGTGLLLTLQPEQKFQKVKGFGGAMTDAAALNILALSPPAQNLLLKSYFSEEGIGYNIIRVPMASCDFSIRTYTYADTPDDFQLHNFSLPEEDTKLKIPLIHRALQLAQRPVSLLASPWTSPTWLKTNGAVNGKGSLKGQPGDIYHQTWARYFVKFLDAYAEHKLQFWAVTAENEPSAGLLSGYPFQCLGFTPEHQRDFIARDLGPTLANSTHHNVRLLMLDDQRLLLPHWAKVVLTDPEAAKYVHGIAVHWYLDFLAPAKATLGETHRLFPNTMLFASEACVGSKFWEQSVRLGSWDRGMQYSHSIITNLLYHVVGWTDWNLALNPEGGPNWVRNFVDS
For B1, in data set [1] (Baseline (unstressed control)), the Km was 4.9 µM and the kcat came to 90.7 s⁻¹. Further, in data set [1] (setting [3]), the Michaelis-Menten constant (Km) was determined as 6.7 µM and the turnover number (kcat) stood at 76.8 s⁻¹. In addition, the “change in kcat, stressed sample vs baseline” value in data set [1] (photo stress vs unstressed control) is “clear decrease”. Besides, the “change in Km, stressed sample vs baseline” value in data set [1] (photo stress vs unstressed control, not considered significant) is “minor increase”. For the same molecule, in data set [2], the “optimal concentration of sodium taurocholate” value is given as 6.5 mM and the “sodium taurocholate concentration above which activity gradually declined” value is listed as “above 8 mM”.
